Experimental data taken from patent US20220064329A1 (Novo Nordisk, published 2022).

B1: VH SEQ ID NO 514 / VL SEQ ID NO 494 (antibody, IgG4, V domains shown)
VH: QVQLQESGPGLVEPSDTLSLTCAVSGYSITSDSAWSWIRQPPGKKLEWIGYIQYSGSTNYNPSLKSRVTMSRDTSKNQFSLKLSSVTALDTAVYYCARSVNYYGNSFAVGYWGQGTLVTVSS
VL: EIVLTQSPATLSLSPGERATLSCRASQGVSDYLHWYQQKPGQAPRLLIKYASQPATGIPARFSGSGSGTDFTLTISSLEPEDVAVYYCQNGHSFPLTFGQGTKLEIK
notes: humanized 11F2; IgG4 S228P/kappa
B2: VH SEQ ID NO 514 / VL SEQ ID NO 502 (antibody, IgG4, V domains shown)
VH: QVQLQESGPGLVEPSDTLSLTCAVSGYSITSDSAWSWIRQPPGKKLEWIGYIQYSGSTNYNPSLKSRVTMSRDTSKNQFSLKLSSVTALDTAVYYCARSVNYYGNSFAVGYWGQGTLVTVSS
VL: EIVLTQSPATLSLSPGERATLSCRASQGVSDYLHWYQQKPGQAPRLLIKYTSQPATGIPARFSGSGSGTDFTLTISSLEPEDFAVYYCQNGHSFPLTFGQGTKLEIK
notes: as for B1
B3: VH SEQ ID NO 522 / VL SEQ ID NO 310 (antibody, IgG4, V domains shown)
VH: QVQLQESGPGLVEPSQTLSLTCTVSGYSISSDSAWSWIRQPPGKGLEWIGYIQYSGSTNYNPSLKSRVTISRDTSKNQFSLKLSSVTAADTAVYYCARSVNYYGNSFAVGPWGQGTLVTVSS
VL: EIVLTQSPATLSLSPGERATLSCRASQGISDYLAWYQQKPGQAPRLLIKYASQPATGIPARFSGSGSGTDFTLTISSLEPEDFAVYYCQNGHSFPLTFGQGTKLEIK
notes: as for B1
B4: VH SEQ ID NO 522 / VL SEQ ID NO 318 (antibody, IgG4, V domains shown)
VH: QVQLQESGPGLVEPSQTLSLTCTVSGYSISSDSAWSWIRQPPGKGLEWIGYIQYSGSTNYNPSLKSRVTISRDTSKNQFSLKLSSVTAADTAVYYCARSVNYYGNSFAVGPWGQGTLVTVSS
VL: EIVLTQSPATLSLSPGERATLSCRASQGISDYLHWYQQKPGEAPRLLIKYTSQPATGIPARFSGSGSGTDFTLTISSLEPEDFAVYYCQNGHSFPLTFGQGTKLEIK
notes: as for B1
B5: VH SEQ ID NO 522 / VL SEQ ID NO 326 (antibody, IgG4, V domains shown)
VH: QVQLQESGPGLVEPSQTLSLTCTVSGYSISSDSAWSWIRQPPGKGLEWIGYIQYSGSTNYNPSLKSRVTISRDTSKNQFSLKLSSVTAADTAVYYCARSVNYYGNSFAVGPWGQGTLVTVSS
VL: EIVLTQSPATLSLSPGERATLSCRASQGISDYLHWYQQKPGEAPRLLIKYTSQPATGIPARFSGSGSGTDFTLTISSLEPEDFGVYYCQNGHSFPLTFGAGTKLELK
notes: as for B1
B6: VH SEQ ID NO 522 / VL SEQ ID NO 334 (antibody, IgG4, V domains shown)
VH: QVQLQESGPGLVEPSQTLSLTCTVSGYSISSDSAWSWIRQPPGKGLEWIGYIQYSGSTNYNPSLKSRVTISRDTSKNQFSLKLSSVTAADTAVYYCARSVNYYGNSFAVGPWGQGTLVTVSS
VL: EIVLTQSPATLSLSPGERATLSCRASQGISDYLHWYQQKPGQAPRLLIKYASQPATGIPARFSGSGSGTDFTLTISSLEPEDFAVYYCQNGHSFPLTFGQGTKLEIK
notes: as for B1
B7: VH SEQ ID NO 522 / VL SEQ ID NO 342 (antibody, IgG4, V domains shown)
VH: QVQLQESGPGLVEPSQTLSLTCTVSGYSISSDSAWSWIRQPPGKGLEWIGYIQYSGSTNYNPSLKSRVTISRDTSKNQFSLKLSSVTAADTAVYYCARSVNYYGNSFAVGPWGQGTLVTVSS
VL: EIVLTQSPATLSLSPGERATLSCRASQGISDYLHWYQQKPGQAPRLLIKYTSQPATGIPARFSGSGSGRDFTLTISSLEPEDFAVYYCQNGHSFPLTFGAGTKLELK
notes: as for B1
B8: VH SEQ ID NO 522 / VL SEQ ID NO 350 (antibody, IgG4, V domains shown)
VH: QVQLQESGPGLVEPSQTLSLTCTVSGYSISSDSAWSWIRQPPGKGLEWIGYIQYSGSTNYNPSLKSRVTISRDTSKNQFSLKLSSVTAADTAVYYCARSVNYYGNSFAVGPWGQGTLVTVSS
VL: EIVLTQSPATLSLSPGERATLSCRASQGISDYLHWYQQKPGQAPRLLIKYTSQPATGIPARFSGSGSGTDFTLTISSLEPEDFAVYYCQNGHSFPLTFGAGTKLELK
notes: as for B1
B9: VH SEQ ID NO 522 / VL SEQ ID NO 358 (antibody, IgG4, V domains shown)
VH: QVQLQESGPGLVEPSQTLSLTCTVSGYSISSDSAWSWIRQPPGKGLEWIGYIQYSGSTNYNPSLKSRVTISRDTSKNQFSLKLSSVTAADTAVYYCARSVNYYGNSFAVGPWGQGTLVTVSS
VL: EIVLTQSPATLSLSPGERATLSCRASQGISDYLHWYQQKPGQAPRLLIKYTSQPATGIPARFSGSGSGTDFTLTISSLEPEDFAVYYCQNGHSFPLTFGQGTKLEIK
notes: as for B1
B10: VH SEQ ID NO 522 / VL SEQ ID NO 366 (antibody, IgG4, V domains shown)
VH: QVQLQESGPGLVEPSQTLSLTCTVSGYSISSDSAWSWIRQPPGKGLEWIGYIQYSGSTNYNPSLKSRVTISRDTSKNQFSLKLSSVTAADTAVYYCARSVNYYGNSFAVGPWGQGTLVTVSS
VL: EIVLTQSPATLSLSPGERATLSCRASQGLSDYLAWYQQKPGEAPRLLIKYASQPATGIPARFSGSGSGTDFTLTISSLEPEDFAVYYCQNGHSFPLTFGQGTKLEIK
notes: as for B1
B11: VH SEQ ID NO 522 / VL SEQ ID NO 374 (antibody, IgG4, V domains shown)
VH: QVQLQESGPGLVEPSQTLSLTCTVSGYSISSDSAWSWIRQPPGKGLEWIGYIQYSGSTNYNPSLKSRVTISRDTSKNQFSLKLSSVTAADTAVYYCARSVNYYGNSFAVGPWGQGTLVTVSS
VL: EIVLTQSPATLSLSPGERATLSCRASQGLSDYLAWYQQKPGQAPRLLIKYTSQPATGIPARFSGSGSGTDFTLTISSLEPEDFAVYYCQNGHSFPLTFGQGTKLEIK
notes: as for B1
B12: VH SEQ ID NO 522 / VL SEQ ID NO 382 (antibody, IgG4, V domains shown)
VH: QVQLQESGPGLVEPSQTLSLTCTVSGYSISSDSAWSWIRQPPGKGLEWIGYIQYSGSTNYNPSLKSRVTISRDTSKNQFSLKLSSVTAADTAVYYCARSVNYYGNSFAVGPWGQGTLVTVSS
VL: EIVLTQSPATLSLSPGERATLSCRASQGLSDYLHWYQQKPGEAPRLLIKYASQPATGIPARFSGSGSGTDFTLTISSLEPEDFAVYYCQNGHSFPLTFGQGTKLEIK
notes: as for B1
B13: VH SEQ ID NO 522 / VL SEQ ID NO 390 (antibody, IgG4, V domains shown)
VH: QVQLQESGPGLVEPSQTLSLTCTVSGYSISSDSAWSWIRQPPGKGLEWIGYIQYSGSTNYNPSLKSRVTISRDTSKNQFSLKLSSVTAADTAVYYCARSVNYYGNSFAVGPWGQGTLVTVSS
VL: EIVLTQSPATLSLSPGERATLSCRASQGVSDYLAWYQQKPGEAPRLLIKYASQPATGIPARFSGSGSGTDFTLTISSLEPEDFAVYYCQNGHSFPLTFGQGTKLEIK
notes: as for B1
B14: VH SEQ ID NO 522 / VL SEQ ID NO 398 (antibody, IgG4, V domains shown)
VH: QVQLQESGPGLVEPSQTLSLTCTVSGYSISSDSAWSWIRQPPGKGLEWIGYIQYSGSTNYNPSLKSRVTISRDTSKNQFSLKLSSVTAADTAVYYCARSVNYYGNSFAVGPWGQGTLVTVSS
VL: EIVLTQSPATLSLSPGERATLSCRASQGVSDYLAWYQQKPGEAPRLLIKYTSQPATGIPARFSGSGSGTDFTLTISSLEPEDFAVYYCQNGHSFPLTFGQGTKLEIK
notes: as for B1
B15: VH SEQ ID NO 522 / VL SEQ ID NO 406 (antibody, IgG4, V domains shown)
VH: QVQLQESGPGLVEPSQTLSLTCTVSGYSISSDSAWSWIRQPPGKGLEWIGYIQYSGSTNYNPSLKSRVTISRDTSKNQFSLKLSSVTAADTAVYYCARSVNYYGNSFAVGPWGQGTLVTVSS
VL: EIVLTQSPATLSLSPGERATLSCRASQGVSDYLAWYQQKPGQAPRLLIKYASQPATGIPARFSGSGSGTDFTLTISSLEPEDFAVYYCQNGHSFPLTFGAGTKLEIK
notes: as for B1
B16: VH SEQ ID NO 522 / VL SEQ ID NO 414 (antibody, IgG4, V domains shown)
VH: QVQLQESGPGLVEPSQTLSLTCTVSGYSISSDSAWSWIRQPPGKGLEWIGYIQYSGSTNYNPSLKSRVTISRDTSKNQFSLKLSSVTAADTAVYYCARSVNYYGNSFAVGPWGQGTLVTVSS
VL: EIVLTQSPATLSLSPGERATLSCRASQGVSDYLAWYQQKPGQAPRLLIKYASQPATGIPARFSGSGSGTDFTLTISSLEPEDFAVYYCQNGHSFPLTFGQGTKLEIK
notes: as for B1
B17: VH SEQ ID NO 522 / VL SEQ ID NO 422 (antibody, IgG4, V domains shown)
VH: QVQLQESGPGLVEPSQTLSLTCTVSGYSISSDSAWSWIRQPPGKGLEWIGYIQYSGSTNYNPSLKSRVTISRDTSKNQFSLKLSSVTAADTAVYYCARSVNYYGNSFAVGPWGQGTLVTVSS
VL: EIVLTQSPATLSLSPGERATLSCRASQGVSDYLAWYQQKPGQAPRLLIKYASQPATGIPARFSGSGSGTDFTLTISSLEPEDFAVYYCQQGHSFPLTFGQGTKLEIK
notes: as for B1
B18: VH SEQ ID NO 522 / VL SEQ ID NO 430 (antibody, IgG4, V domains shown)
VH: QVQLQESGPGLVEPSQTLSLTCTVSGYSISSDSAWSWIRQPPGKGLEWIGYIQYSGSTNYNPSLKSRVTISRDTSKNQFSLKLSSVTAADTAVYYCARSVNYYGNSFAVGPWGQGTLVTVSS
VL: EIVLTQSPATLSLSPGERATLSCRASQGVSDYLAWYQQKPGQAPRLLIKYASQPATGIPARFSGSGSGTDFTLTISSLEPEDFGVYYCQNGHSFPLTFGQGTKLEIK
notes: as for B1
B19: VH SEQ ID NO 522 / VL SEQ ID NO 438 (antibody, IgG4, V domains shown)
VH: QVQLQESGPGLVEPSQTLSLTCTVSGYSISSDSAWSWIRQPPGKGLEWIGYIQYSGSTNYNPSLKSRVTISRDTSKNQFSLKLSSVTAADTAVYYCARSVNYYGNSFAVGPWGQGTLVTVSS
VL: EIVLTQSPATLSLSPGERATLSCRASQGVSDYLAWYQQKPGQAPRLLIKYASQPATGIPARFSGSGSGTDFTLTISSLEPEDVAVYYCQNGHSFPLTFGQGTKLEIK
notes: as for B1

The binders below were run against T1, recombinant human activated Factor VII (FVIIa) (human, UniProt P08709 61-212; P08709 213-466, ten glutamate residues of the Gla domain may be gamma-carboxylated) (assay: BLI (Fortebio)).
T1 construct: chains tethered by a disulfide bond; also called Factor VIIa; rFVIIa
T1 sequence 1: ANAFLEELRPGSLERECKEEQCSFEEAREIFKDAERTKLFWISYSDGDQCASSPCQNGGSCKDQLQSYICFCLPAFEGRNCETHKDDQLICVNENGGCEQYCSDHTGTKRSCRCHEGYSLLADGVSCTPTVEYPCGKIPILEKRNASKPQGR
T1 sequence 2: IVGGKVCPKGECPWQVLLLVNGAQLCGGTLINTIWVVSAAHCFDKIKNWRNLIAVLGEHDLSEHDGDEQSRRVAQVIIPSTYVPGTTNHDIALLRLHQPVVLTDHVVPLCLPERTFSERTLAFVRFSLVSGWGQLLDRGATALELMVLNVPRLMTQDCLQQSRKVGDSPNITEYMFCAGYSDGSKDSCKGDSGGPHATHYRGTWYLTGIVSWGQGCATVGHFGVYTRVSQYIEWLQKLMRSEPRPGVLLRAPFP
Protocol: All steps were performed in running buffer (20 mM HEPES buffer (pH 7.4), 150 mM NaCl, 5 mM CaCl2, 0.03% Tween 20, 1 mg/ml IgG-free BSA) at […] Antibodies were captured on anti-human tips (AHC, Fortebio) for 3 min at a concentration of 10 ug/ml. This was followed by a 3 min incubation to establish a baseline. Following this, association was monitored for 3 min using four different concentrations of VIIa (25 nm, 50 nM, 100 nM, and 200 nM), followed by a 3 mi dissociation. Sensorgrams were analysed using Fortebio data analysis software.
B1 showed a Kd of 1.4 nM. B2 was tested, and the Kd was 0.92 nM. With B3 the Kd was 8.3 nM. B4 was tested, and the Kd was 0.97 nM. For B5, the Kd was 0.81 nM. B6 gave a Kd of 1.2 nM. B7 showed a Kd of 1.4 nM. Work on B8 yielded a Kd of 1.3 nM. In the case of B9, the Kd is reported as 1.3 nM. For B10, the Kd was 14 nM. With B11 the Kd was 14 nM. B12 was tested, and the Kd was 1.3 nM. In the case of B13, the Kd is reported as 15 nM. For B14, the Kd was 320 nM. With B15 the Kd was 17 nM. With B16 the Kd was 31 nM. Binder B17 has a Kd of 110 nM. Binder B18 has a Kd of 12 nM. Work on B19 yielded a Kd of 57 nM.
